{
  "source": "patent US9434716B2",
  "about": "“Antigen binding proteins” (Glaxo Group Limited, priority 2011, dated 2016)",
  "molecules": {"B1": {"name": "SAP-K H1L1: humanised SAP-K, VH SEQ ID NO:38, VL SEQ ID NO:42 (antibody, V domains shown)", "VH": "QVQLVQSGAEVKKPGSSVKVSCKASGYTFTSYWMHWVRQAPGQGLEWMGMIHPNSVNTNYNEKFKSRVTITADKSTSTAYMELSSLRSEDTAVYYCARRNDYYWYFDVWGQGTLVTVSS", "VL": "DIQMTQSPSSLSASVGDRVTITCKASQNVNSNVAWYQQKPGKAPKALIYSASYRYSGVPSRFSGSGSGTDFTLTISSLQPEDFATYYCQQCNNYPFTFGQGTKLEIK"}, "B2": {"name": "SAP-K H0L1: humanised SAP-K, VH SEQ ID NO:37, VL SEQ ID NO:42 (antibody, V domains shown)", "VH": "B1 VH with Y27G, T30S", "VL": "B1 VL"}, "B3": {"name": "SAP-K H2L1: humanised SAP-K, VH SEQ ID NO:39, VL SEQ ID NO:42 (antibody, V domains shown)", "VH": "B1 VH with M48I, V68A", "VL": "B1 VL"}, "B4": {"name": "SAP-K: mouse IgG2a monoclonal anti-human SAP antibody, VH SEQ ID NO:17, VL SEQ ID NO:19 (antibody, V domains shown)", "VH": "QVQLQQPGAELIKPGASVKLSCKASGYTFTSYWMHWVKQRPGQGLEWIGMIHPNSVNTNYNEKFKSKATLTVDKSSSTAYMQLNSLTSEDSAVYYCARRNDYYWYFDVWGTGTTVTVSS", "VL": "DIVMTQSQKFMSTSVGDRVSVTCKASQNVNSNVAWYQQKPGQSPKALIYSASYRYSGVPDRFTGSGSGTDFTLTITNVQSEDLAEYFCQQCNNYPFTFGSGTKLEIK"}},
  "key": {"[1]": {"details": "initial clinical studies; cited from earlier work"}, "[2]": {"biological_target": "T1, circulating SAP (Homo sapiens, UniProt P02743)", "T1 construct": "host or cells: circulating plasma protein in vivo", "T1 sequence (P02743 20-223)": "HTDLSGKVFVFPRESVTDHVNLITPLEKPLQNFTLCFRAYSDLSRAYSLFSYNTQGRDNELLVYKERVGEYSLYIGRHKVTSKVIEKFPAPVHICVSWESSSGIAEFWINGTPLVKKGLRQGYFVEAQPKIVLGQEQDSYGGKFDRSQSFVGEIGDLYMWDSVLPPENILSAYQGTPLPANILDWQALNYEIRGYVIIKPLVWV", "details": "for as long as the drug is administered; cited from earlier work"}, "[3]": {"biological_target": "T2, human SAP (Homo sapiens, UniProt P02743)", "T2 construct": "from tissue; host or cells: natural human SAP, purified", "T2 sequence (P02743 20-223)": "as above", "experiment": "Biacore kinetics, human SAP captured on immobilised O-phosphoethanolamine", "type": "binding", "details": "for binding with respect to H3L0: amino acid scan at position 91 of SAP-K L0 light chain", "description": "O-phosphoethanolamine was immobilised on a Biacore CM5 chip by primary amine coupling in accordance with the manufacturer's instructions. Human SAP was then captured on the surface in the presence of calcium chloride, in order to replicate in the Biacore system in vitro, the precise orientation of SAP molecules bound to amyloid fibrils in vivo. Anti SAP antibodies were then passed over this surface at 256, 64, 16, 4, 1 nM and a binding sensorgrams obtained. Analysis was carried out at 25° C. using 4% BSA, 10 mM Tris, 140 mM NaCl, 2 mM CaCl2, 0.05% surfactant P20, 0.02% Na N3, pH 8.0 as running buffer. […] Data generated were double referenced with a buffer injection over the human SAP surface and analyzed using the bivalent analyte model in the Biacore T100 evaluation software."}, "[4]": {"biological_target": "T2, human SAP", "experiment": "Biacore off-rate ranking, SAP immobilised on C1 chip", "type": "binding", "details": "culture supernatants, chimera purified at […], single curve, for ranking, 25° C.", "description": "Human and cynomologus monkey SAP were immobilised on a Biacore C1 chip by primary amine coupling in accordance with the manufacturer's instructions. […] All runs were double referenced with a buffer injection for purified sample or media for the supernatant samples over the human and cyno SAP surfaces. Analysis was carried out at 25° C. using HBS-EP buffer. […] Data were analysed using the 1 to 1 dissociation model within the Biacore T100 evaluation software.\nThe data generated in Tables 6a and 6b show off-rates (kd) of the humanised SAP-E and SAP-K antibody supernatants respectively. The values were based on a single curve and used for ranking purposes between the different constructs for binding to human SAP. […] The SAP-E humanised L1 light chain was the best light chain variant and combination of the L1 with the H1 heavy chain variant gave a humanised antibody with an acceptable off-rate whilst keeping the number of back mutations to a minimum."}, "[5]": {"biological_target": "T3, native human SAP (Homo sapiens, UniProt P02743)", "T3 construct": "against both isolated pure human SAP and whole human serum; from tissue; host or cells: whole human serum, and isolated pure human SAP", "T3 sequence (P02743 20-223)": "as above", "experiment": "Double immunodiffusion in agarose gel", "type": "binding", "details": "isolated pure human SAP and whole human serum"}, "[6]": {"biological_target": "T2, human SAP", "experiment": "Human SAP binding ELISA, SAP-K and SAP-E hybridoma antibodies", "details": "1 μg/mL lower density coating of human SAP", "description": "1 μg/mL or 5 μg/mL human SAP was directly immobilised onto an ELISA plate and blocked with 1% BSA/TBS plus 0.05% TWEEN20. Anti-SAP antibodies from purified material were titrated across the plate. Bound antibody was detected by treatment with a horse-radish peroxidase (HRP)-conjugated rabbit-anti-mouse IgG antibody (Dako, P0260). The ELISA was developed using O-phenylenediamine dihydrochloride (OPD) peroxidase substrate (Sigma, P9187)."}, "[7]": {"biological_target": "T2, human SAP", "experiment": "Western blotting and fragment epitope mapping (CNBr, chymotrypsin)", "type": "binding", "from_the_text": "This is consistent with the kinetic stability and resistance to denaturation of SAP (Manning, M. and Colón, W. (2004) Biochemistry, 43: 11248-11254).\nB, SDS-PAGE analysis of SAP cleaved with CNBr. […] These were precisely confirmed by mass spectrometry. […] C, SDS-PAGE analysis of SAP digested with chymotrypsin. Left panel: Coomassie blue stain; lane 1, untreated control SAP; lane 2, SAP after chymotrypsin digestion, showing the expected major fragments corresponding to residues 1-140 and 145-204. These were precisely confirmed by mass spectrometry. Right panel: Western blot with SAP-E showing intense staining of intact untreated SAP in lanes 1 (500 ng loaded) and 2 (100 ng), and also residual intact SAP in lanes 3 and 4 which contained the chymotrypsin digested SAP at different loadings. Very weak binding of SAP-E to the residue 1-140 fragment is seen only in lane 3 which was most heavily loaded. […] D, Sequence comparison between human SAP (h) and mouse SAP (m) for residues 136-147. Top panel, differences indicated above by residues shown in black in the murine sequence. Bottom panel, position of this extended loop with 140Y at its apex shown in white in the 3D subunit structure of human SAP. The different residues in the murine sequence are shown in black. The grey spheres represent the calcium atoms bound in the ligand binding pocket."}, "[8]": {"biological_target": "T2, human SAP", "experiment": "Competition ELISA with chimeric anti-SAP mAb", "type": "binding", "details": "human SAP coated at 5 μg/mL; purified murine mAb", "from_the_text": "A constant concentration of chimeric anti-SAP mAb was mixed with serial diluted (1:1) amounts of mouse anti-SAP mAbs. Plates were washed and the amount of chimeric antibody bound to the immobilised human SAP was detected using goat anti-human Kappa Light chain peroxidase conjugate (Sigma, A7164). The ELISA was developed using O-phenylenediamine dihydrochloride (OPD) peroxidase substrate (Sigma, P9187)."}, "[9]": {"system": "mice with systemic AA amyloidosis", "experiment": "SAP-K in clearing amyloid deposits, mouse AA amyloidosis model (Example 15)", "type": "in vivo", "details": "lower doses of 1 mg, 0.5 mg and 0.1 mg per mouse", "description": "AA amyloidosis was induced and confirmed in wild-type C57BL/6 mice as detailed in Example 10 above. After loading the amyloid deposits with human SAP also detailed in Example 10, groups of mice were treated with 50 mg per mouse of total IgG as the whole IgG fraction (batch 2866) of the sheep polyclonal anti-human SAP antiserum providing a dose of 7 mg of actual anti-SAP antibody, […], and, as a negative control, isolated purified monoclonal mouse IgG2a antibody specific for an unrelated human antigen and unreactive with either human SAP or any murine antigen. All mice were killed 17 days later for estimation of amyloid load by Congo red staining."}, "[10]": {"biological_target": "T2, human SAP", "experiment": "Binding of mouse monoclonals to immobilised human SAP in vitro", "from_the_text": "SAP-E and SAP-K are from two groups of anti-SAP monoclonals, each group having been tested separately for their binding to human SAP in vitro.\nSAP-K was selected from among the 6 different, most avidly binding, mouse IgG2a monoclonals, derived by standard techniques from immunization with purified human SAP and a conventional fusion to produce hybridomas which were cloned by routine methods. […] This was the case regardless of whether the human SAP had been directly immobilised on plastic surfaces by non-specific adherence or by covalent attachment, or by the specific calcium dependent binding of SAP to immobilised ligands, whether amyloid fibrils or the small molecule ligand, phosphoethanolamine. SAP-K also bound well to directly immobilised SAP in the presence or absence of calcium, and if the SAP had previously been complexed with CPHPC and then covalently ‘fixed’ in the decameric SAP-CPHPC complex (Pepys, M. B. et al (2002) Targeted pharmacological depletion of serum amyloid P component for treatment of human amyloidosis. Nature, 417: 254-259; Kolstoe, S. E. et al (2009) Molecular dissection of Alzheimer's disease neuropathology by depletion of serum amyloid P component. Proc. Natl. Acad. Sci. USA, 106: 7619-7623). SAP-E also bound well to human SAP in all these different configurations."}, "[11]": {"biological_target": "T2, human SAP", "experiment": "Biacore (BIAcoreX), human SAP covalently immobilised on the chip", "type": "binding", "details": "mean and SD of 3 replicate measurements"}, "[12]": {"details": "CM5 chip, calcium, bivalent analyte model, 25° C., for comparison only, avidity effect"}},
  "note": "Substitutions are numbered along the chain they refer to. Entries after “also recorded” stand apart in the source; their conditions may differ.",
  "data": [
    {"molecule": "O=C(O)[C@H]1CCCN1C(=O)CCCCC(=O)N1CCC[C@@H]1C(=O)O", "note": "[CPHPC, (R)-1-[6-[(R)-2-Carboxy-pyrrolidin-1-yl]-6-oxo-hexanoyl]pyrrolidine-2-carboxylic acid]", "values": [
      {"measurement": "effect on amyloid", "setting": "[1]", "value": "did not produce amyloid regression"},
      {"measurement": "depletion of circulating SAP", "setting": "[2]", "value": "depletes almost all circulating SAP"}
    ]},
    {"molecule": "glycine", "values": [
      {"measurement": "binding with respect to H3L0", "setting": "[3]", "value": "improved binding with respect to H3L0, but to a lesser extent than alanine"}
    ]},
    {"molecule": "serine", "values": [
      {"measurement": "binding with respect to H3L0", "setting": "[3]", "value": "improved binding with respect to H3L0, but to a lesser extent than alanine"}
    ]},
    {"molecule": "valine", "values": [
      {"measurement": "binding with respect to H3L0", "setting": "[3]", "value": "improved binding with respect to H3L0, but to a lesser extent than alanine"}
    ]},
    {"molecule": "B1", "values": [
      {"measurement": "kd", "setting": "[4]", "value": 0.0296, "unit": "s⁻¹"}
    ]},
    {"molecule": "B2", "values": [
      {"measurement": "kd", "setting": "[4]", "value": 0.0479, "unit": "s⁻¹"}
    ]},
    {"molecule": "B3", "values": [
      {"measurement": "kd", "setting": "[4]", "value": 0.0321, "unit": "s⁻¹"}
    ]},
    {"molecule": "B4", "values": [
      {"measurement": "binding to native human SAP (immunoprecipitation)", "setting": "[5]", "value": "bound apparently equally well to native human SAP"},
      {"measurement": "binding to the immobilised human SAP", "setting": "[6]", "value": "greater binding than the SAP-E"},
      {"measurement": "ka", "setting": "[3]; [12]", "value": 300000, "unit": "M⁻¹ s⁻¹"},
      {"measurement": "kd", "setting": "[3]; [12]", "value": 0.000219, "unit": "s⁻¹"},
      {"measurement": "binding to native human SAP in western blotting", "setting": "[7]; after agarose gel electrophoresis in physiological buffers", "value": "bound"},
      {"measurement": "binding to human SAP in western blotting from reduced SDS-PAGE", "setting": "[7]; denatured human SAP", "value": "only recognises native human SAP"},
      {"measurement": "competition with SAP-E chimera", "setting": "[8]", "value": "no competition"},
      {"measurement": "effect on amyloid deposits", "setting": "[9]", "value": "no significant effect"},
      {"measurement": "binding to human SAP in vitro", "setting": "[10]; compared within the group of monoclonals", "value": "strongest binding to SAP, within their groups; also recorded: greatest binding to immobilised human SAP"},
      {"measurement": "binding to immobilised human SAP", "setting": "[10]; human SAP sparsely available, plates coated with 1 μg/ml", "value": "much more SAP-K than SAP-E became bound"},
      {"measurement": "ka", "setting": "[11]", "value": "3.18 ± 5 × 10^4 M^−1 sec^−1"},
      {"measurement": "kd", "setting": "[11]", "value": "1.7 ± 0.9 × 10^−5 sec^−1"}
    ]}
  ]
}
